According to article PMC6713926 (2019):
Numbering of substitutions follows the chain as printed. Numbers in names are those of the source.

B1: FPht Q343R (complex)
chain 1: DPVLCFTQYEESSGKCKGLLGGGVSVEDCCLNTAFAYQKRSGGLCQPCRSPRWSLWSTWAPCSVTCSEGSQLRYRRCVGWNGQCSGKVAPGTLEWQLQACEDQQCCPEMGGWSGWGPWEPCSVTCSKGTRTRRRACNHPAPKCGGHCPGQAQESEACDTQQVCPTHGAWATWGPWTPCSASCHGGPHEPKETRSRKCSAPEPSQKPPGKPCPGLAYEQRRCTGLPPCP
chain 2: VAGGWGPWGPVSPCPVTCGLGQTMEQRTCNHPVPQHGGPFCAGDATRTHICNTAVPCPVDGEWDSWGEWSPCIRRNMKSISCQEIPGRQSRGRTCRGRKFDGHRCAGQQQDIRHCYSIQHCPLKGSWSEWSTWGLCMPPCGPNPTRARQRLCTPLLPKYPPTVSMVEGQGEKNVTFWGRPLPRCEELQGQKLVVEEKRPCLHVPACKDPEEEEL
B2: FPht Y414D (complex)
chain 1: B1 chain 1
chain 2: B1 chain 2 with R88Q, Y159D

Biological target: Biotinylated C3b (human, UniProt P01024 23-667; P01024 749-1663, biotin (Maleimide-PEG2-Biotin))
Sequence (P01024 23-667, chain 1 of 2): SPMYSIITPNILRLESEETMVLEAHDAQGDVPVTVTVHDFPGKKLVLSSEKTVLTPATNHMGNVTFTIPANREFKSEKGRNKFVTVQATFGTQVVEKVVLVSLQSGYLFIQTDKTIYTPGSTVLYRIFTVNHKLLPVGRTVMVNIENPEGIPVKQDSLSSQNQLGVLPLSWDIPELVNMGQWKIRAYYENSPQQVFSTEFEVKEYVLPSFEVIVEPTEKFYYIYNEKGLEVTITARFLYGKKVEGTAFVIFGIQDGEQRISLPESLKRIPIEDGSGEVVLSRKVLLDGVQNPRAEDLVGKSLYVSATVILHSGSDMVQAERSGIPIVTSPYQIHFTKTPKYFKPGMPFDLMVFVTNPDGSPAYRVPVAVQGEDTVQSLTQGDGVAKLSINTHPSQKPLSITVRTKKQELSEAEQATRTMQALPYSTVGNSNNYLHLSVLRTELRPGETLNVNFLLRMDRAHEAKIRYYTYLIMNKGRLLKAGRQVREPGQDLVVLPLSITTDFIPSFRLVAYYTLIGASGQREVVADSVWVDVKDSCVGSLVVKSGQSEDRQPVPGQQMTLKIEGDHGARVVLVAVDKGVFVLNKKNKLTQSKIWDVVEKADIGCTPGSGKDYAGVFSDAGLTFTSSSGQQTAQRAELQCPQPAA
Sequence (P01024 749-1663, chain 2 of 2): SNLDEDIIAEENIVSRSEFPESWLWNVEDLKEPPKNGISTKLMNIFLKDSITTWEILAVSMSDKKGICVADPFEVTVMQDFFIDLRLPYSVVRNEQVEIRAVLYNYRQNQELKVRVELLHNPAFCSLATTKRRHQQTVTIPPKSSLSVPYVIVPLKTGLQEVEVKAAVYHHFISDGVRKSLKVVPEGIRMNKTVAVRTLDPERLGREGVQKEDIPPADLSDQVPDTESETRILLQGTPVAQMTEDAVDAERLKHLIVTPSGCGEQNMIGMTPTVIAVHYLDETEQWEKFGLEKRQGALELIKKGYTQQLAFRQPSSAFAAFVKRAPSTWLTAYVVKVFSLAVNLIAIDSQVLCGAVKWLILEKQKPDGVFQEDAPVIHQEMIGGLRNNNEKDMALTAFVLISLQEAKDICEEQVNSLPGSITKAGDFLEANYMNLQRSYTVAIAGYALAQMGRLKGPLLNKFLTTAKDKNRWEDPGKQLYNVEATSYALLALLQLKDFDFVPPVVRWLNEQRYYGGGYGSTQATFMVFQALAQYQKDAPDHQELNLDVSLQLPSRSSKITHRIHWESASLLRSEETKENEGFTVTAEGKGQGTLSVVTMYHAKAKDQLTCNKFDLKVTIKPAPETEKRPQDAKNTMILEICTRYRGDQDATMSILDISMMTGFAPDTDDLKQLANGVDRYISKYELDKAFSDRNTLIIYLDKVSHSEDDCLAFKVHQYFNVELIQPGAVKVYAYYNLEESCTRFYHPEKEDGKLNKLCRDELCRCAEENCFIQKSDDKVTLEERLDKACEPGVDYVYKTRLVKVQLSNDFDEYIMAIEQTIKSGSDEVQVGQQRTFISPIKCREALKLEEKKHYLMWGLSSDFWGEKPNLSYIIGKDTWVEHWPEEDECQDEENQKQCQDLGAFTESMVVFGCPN
Experiment: BLI

Binder	Kd [µM]
B1	4
B2	5
